The target of experiment [1] is T1, human CXCR6 (human, UniProt O00574 1-342).
T1 construct: also called hu-CXCR6; wild type human CXCR6
Put plainly: screening on cells overexpressing CXCR6, one single concentration, yes/no.

The target in experiment [2] is T2, cynomolgus monkey CXCR6 (cynomolgus monkey, UniProt Q9BDS6 1-343).
T2 construct: also called cyno-CXCR6; cyno monkey CXCR6
T2 sequence: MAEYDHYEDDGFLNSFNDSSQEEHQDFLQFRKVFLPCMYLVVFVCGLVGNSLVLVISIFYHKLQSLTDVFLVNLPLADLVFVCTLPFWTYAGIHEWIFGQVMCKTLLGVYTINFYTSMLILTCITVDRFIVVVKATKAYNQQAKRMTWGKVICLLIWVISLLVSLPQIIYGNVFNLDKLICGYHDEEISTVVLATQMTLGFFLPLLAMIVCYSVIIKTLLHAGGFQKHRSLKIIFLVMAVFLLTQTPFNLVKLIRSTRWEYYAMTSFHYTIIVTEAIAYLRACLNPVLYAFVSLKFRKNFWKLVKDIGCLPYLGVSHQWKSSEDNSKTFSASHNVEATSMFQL
The experiment is described as above.

Experiment [3] concerns the target T1, human CXCR6. Put plainly: description of the chimeric clones used in the ADCC example.
In experiment [4] the target is T2, cynomolgus monkey CXCR6. The description is as above.
Experiment [5] concerns the target T2, cynomolgus monkey CXCR6. Put plainly: flow cytometry on cells overexpressing CXCR6, serial dilutions of antibody (FIG. 11). As for the experimental part: Wild type C57BL/6 mice were immunized and boosted with a full-length human CXCR6-vector. Prior to immunization, the vector was tested for cell surface expression of native human CXCR6 on transfected mammalian cell lines by flow cytometry to ensure a successful immunization and screening. Genetic immunization was performed by ballistically delivering DNA-coated gold particles into the skin of wild type C57BL/6 mice to elicit a target-specific immune response. After the serum test showing satisfactory titer of antibody binding to both human CXCR6 and cyno monkey CXCR6, mice were sacrificed. A single B cell platform was used to sequentially screen bone marrow antibody-producing plasma cells for binding to both human and cyno monkey CXCR6. The conventional hybridoma technique was used on splenocytes and lymph node cells. […] After sequencing the VH and VL, clones with distinct CDRs were further expressed as full-length murine antibodies or human chimeric antibodies. […]
Cells overexpressing human-CXCR6 (hu-CXCR6), cyno monkey CXCR6 (cyno-CXCR6) or mouse CXCR6 were cultured in DMEM medium containing 10% FCS. […] After two rounds of washing with PBS/0.5% BSA buffer, cells were further stained with fluorescence dye-labeled secondary antibody. After two more rounds of washing, cells were resuspended in PBS/0.5% BSA, fixed, and collected by flow cytometry and analyzed.
A general note: A flow cytometer gives signals particle by particle.

Here are results for 16 molecules from US20240239907A1 (EDELWEISS IMMUNE, published 2024).

T1 sequence (O00574 whole entry): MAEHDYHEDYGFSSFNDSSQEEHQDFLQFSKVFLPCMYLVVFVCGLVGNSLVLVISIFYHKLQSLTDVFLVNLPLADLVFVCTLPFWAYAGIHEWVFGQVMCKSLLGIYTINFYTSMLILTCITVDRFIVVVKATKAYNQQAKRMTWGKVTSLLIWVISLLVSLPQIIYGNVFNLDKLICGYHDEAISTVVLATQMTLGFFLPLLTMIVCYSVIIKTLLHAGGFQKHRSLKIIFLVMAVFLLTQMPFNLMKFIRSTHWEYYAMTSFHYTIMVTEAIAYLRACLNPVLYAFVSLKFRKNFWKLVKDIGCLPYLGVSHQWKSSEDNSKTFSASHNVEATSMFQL

B1: Beacon2-A7 (antibody, V domains shown)
VH: EMKLEESGGGLVQPGGSMKLSCVASGFTFSNYWMSWVRQSPEKGLQWVGQIRLKSDNYATHYAESVKGKFTISRDDSKSSVYLQMNNLRAEDTGIYYCAPYSNWGYWGQGTTLTVSS
VL: DIVMTQAAPSIPVTPGGSVSISCRSTKSLLHTNGNTYLYWFLQRPGQSPQVLIYRMSNLASGVPDRFSGSGSGTAFTLRISRVEAEDVGVYYCMQYLEYPYTFGSGTKLEIK
notes: Mouse-derived; tested at the screening stage
Take B1: in experiment [1], the binding result is “binds”.

B2: CNGs-3B2 (antibody, V domains shown)
VH: DVQLVESGGGLVQPGGSRTLSCAASGFTFSSFGMHWVRQAPEKGLEWVAYISSGSTTIYYADTVKGRFTISRDNPKNTLFLQVTSLRSEDTAVYYCTRSHWPYWYFDVWGAGTTVTVSS
VL: DVQITQSPSYLAASPGETITINCRASKSISKYLAWYQEKPGKTNKLLIYSGSTLQSGNPSRFSGSGSGTDFTLTISRLEPEDCAMYYCQQHNEFPWTFGGGTKLEIK
notes: as for B1
On to B2, for which the binding result in experiment [2] and in experiment [1] was “binds” each time.

B3: chimeric COXs-1B10 (antibody, V domains shown)
VH: QVTLKESGPGILKASQTLSLTCSFSGFSLSTSGMGIGWIRQPSGKGPEWLAHIWWDDEKYYRPSLKSRLTVSKDTSRNQVFLNITSVDTTDSASYYCVQRTPGRFAYWGQGTLVTVST
VL: DIVMTQSPSSLAVSIGQKVIMSCKSSQSLLSSRTQKNYLAWYQQKPGQSPKLLVYFASIRESGVPDRFTGSGSGTDFTLTISTVQAEDLAVYYCQQYFLTPYTFGGGTKLEIK
notes: also called COXs-1B10 human chimeric mAb
On to B3, for which the binding result in experiment [3] is “binds”.

B4: Beacon1-A4 (antibody, V domains shown)
VH: EVQLQQSGPVLVKPGASVKMSCKTSGYTFTDYYMNWVKQSHGKSLEWIGVIKPYSGRTSYDQKFKDKATLTVDKSSSTAYMELNSLTSEDSAVYYCAREGVSITTVGSSLYYYPMDYWGQGTSVTVSS
VL: DIVLTQSPATLSVTPGASVSLSCRASQSISNNLHWYQQKSHESLRLLIKYASQSVSGIPSRFSGSGSGTDFTLTINSVETEDFGMYFCQQSNSWPRTFGGGTKLEIK
notes: as for B1
For B4, the binding result in experiment [1] is given as “binds”.

B5: CNGs-3H2-B7 (antibody, V domains shown)
VH: EVQLVESGGGLVQPKGSLKLSCAASGVSFKTYAMTWVRQAPGKGLEWVARIRSKRYNYATYYADSVKDRFTISRDDSESMLYLQMNNLKTEDTAMYYCMRQGAYWGQGTLVTVSA
VL: DVVLTQTPLSLPVNIGDQASISCKSTKSLLNSDGFTYLDWYLQKPGQSPHLLIYLVSNRFSGVPDRFSGSGSGTDFTLKISRVEAEDLGVYYCFQSNYLPFTFGSGTKLEIK
notes: as for B1
Consider B5, for which the binding result in experiment [1] was “binds”.

B6: Beacon2-A3 (antibody, V domains shown)
VH: EVQIVESGGGLVQPKGSLKLSCAASGFSFNTYAMNWVRQAPGKGLEWVARIRTKRNNYVKFYADSVKDRFTISRDDSESMLYLQMNILKTEDTAMYYCVRQGAYWGQGTLVTVSA
VL: DVVLTQTPLSLPVNIGDQASISCKSTKSLLNSDGFTYLDWYLQKPGQSPQLLIYLVSNRFSGVPDRFSGSGSGTDFTLKISRVEAEDLGVYFCFQSNYLPYTFGGGTKLEIK
notes: as for B1
In the case of B6, in experiment [1], the binding result is reported as “binds”.

B7: Beacon2-E5 (antibody, V domains shown)
VH: EVQLVESGGGLVQPKGSLKLSCAASGFSFNTYAMNWVRQAPGKGLEWVARIRTKRNNYVKFYADSVKGRFTISRDDSQSMLYLQMNNLKAEDTAIYYCVRQGAFWGQGTLVTVSA
VL: DVVLTQTPLSLPVNIGDQASISCKSTKSLLNSDGFTYLDWYLQKPGQSPQLLIYLVSNRFSGVPDRFSGSGSGTDFTLRISRVEAEDLGVYYCFQSNYLPYTFGGGTKLEIK
notes: as for B1
As for B7, the binding result in experiment [1] is listed as “binds”.

B8: CNE-6E10 human/mouse chimeric antibody with human IgG1 Fc (antibody, V domains shown)
VH: EVQLVESGGGLVQPKGSLKLSCAASGFSFNTYAMNWVRQAPGKGLEWVARIRSKTNSYETYYADSVKDRFTISRDDSESMLYLQMNNLKTEDTAVYYCLSHGAFAYWGQGTLVTVSA
VL: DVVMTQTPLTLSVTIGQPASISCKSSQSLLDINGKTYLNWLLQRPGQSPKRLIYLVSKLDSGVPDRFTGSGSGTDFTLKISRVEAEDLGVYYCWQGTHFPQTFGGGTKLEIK
For the molecule B8, the binding result in experiment [3] is “binds”.

B9: Genovac1-D12 (antibody, V domains shown)
VH: EVKLEESGGGLVQPGGSMKLSCVASGFTFSNYWMNWVRQSPEKGLKWVAQIRLKSDNYGTHYAESVKGRFTISRDDSKGSVYLQMNNLRAEDTGIYYCTSNAWFAYWGQGTLVTVSA
VL: DIVMTQAAPSVPVTPGESVSISCRSSKSLLHSNGNTYLFWFLQRPGQSPQRLISYMSNLASGVPDRFSGRGSGTDFTLRISRVEAEDVGVYYCLLSLEYPYTFGSGTRLEIT
notes: as for B1
Regarding B9, the binding result in experiment [1] is “binds”.

B10: Genovac2-H2 (antibody, V domains shown)
VH: EVKLEESGGGLVRPGGSMKLSCVASGFTFSDYWMNWVRQSPEKGLEWLAQIRLNSGNYAARYAESVKGRFTISRDDSKNSVYLQMINLRAEDTGIYFCTSNAWLANWGQGTLVTVSA
VL: DIQMTQSPASLSVSVGETVTITCRASENIYNNLAWYQQKQGKSPQLLVYAATNLADGVPSRFSGSGSGTQYSLKINSLQSEDFGSYYCQHFWGTPWTFGGGTKLEIK
notes: as for B1
On to B10, for which the binding result in experiment [1] is reported as “binds”.

B11: COXs-2D2 human/mouse chimeric antibody with human IgG1 Fc (antibody, V domains shown)
VH: EVQLVESGGGLVQPKGSLKLSCTASGFSFDTYAMNWVRQAPGKGLEWIARIRSKSKNYATYYADSVKDRFTISRDDSANILYLQMNNLKTEDTAIYYCLRQGSFDYWGQGTTLTVSS
VL: DVVLTQTPLSLPVSLGDQASISCRSGQRIVHTDGNTYLYWYLQKPGQSPKLLIYRVSNRFSGVPDRFSGSGSGTDFTLKISRVEAEDMGIYYCFQGTHFPYTFGGGTKLEIK
For the molecule B11, in experiment [3], the binding result is “binds”.

B12: Genovac1-G2 human/mouse chimeric antibody with human IgG1 Fc (antibody, V domains shown)
VH: DVQLQESGPGLVKPSQSLSLTCSVTGYSITSGYYWNWIRQFPGNKLEWMGYIRYDGSNNYNPSLKNRISITRDTSKNQFFLKLNSVTTEDTATYYCARDGYSTYFDYWGQGTTLTVSS
VL: DIQMTQSPASLSASVGETVTITCRASENIYSYLAWYQQKQGKSPQLLVYNAKTLAEGVPSRFSGSGSGTQFSLKINSLQPEDFGSYYCQHHYGTPWTFGGGTKLEIK
With B12, the binding result in experiment [4] and in experiment [3] was “binds” each time.

B13: Genovac1-G2 (antibody, V domains shown)
VH: DVQLQESGPGLVKPSQSLSLTCSVTGYSITSGYYWNWIRQFPGNKLEWMGYIRYDGSNNYNPSLKNRISITRDTSKNQFFLKLNSVTTEDTATYYCARDGYSTYFDYWGQGTTLTVSS
VL: DIQMTQSPASLSASVGETVTITCRASENIYSYLAWYQQKQGKSPQLLVYNAKTLAEGVPSRFSGSGSGTQFSLKINSLQPEDFGSYYCQHHYGTPWTFGGGTKLEIK
notes: Mouse-derived
As for B13, the binding result in experiment [5] and in experiment [1] was “binds” throughout.

B14: Genovac2-C1 (antibody, V domains shown)
VH: DVKLVESGGGLVKPGGSLKLSCAASGFTFSSYTMSWVRQTPEKRLEWVATISSGGSYTYYPDSVKGRFTISRDNAKNTLYLQMSSLKSEDTAMYYCTRGGGNYPFWFFDVWGAGTTVTVSS
VL: DIQMTQSPASLSASVGETVTITCRASENIYSYLAWYQQKQGKSPQLLVYNAKTLAEGVPSRFSGSGSGTQFSLKIKSLQPEDFGSYYCQHHYGIPRTFGGGTKVETK
notes: Mouse antibody
For B14, the binding result in experiment [5] is on record as “binds”.

B15: Beacon2-F1 (antibody, V domains shown)
VH: EVQLVESGGDLVKPGGSLKLSCAASGFTFSSYGMSWVRQTPDKRLEWVATISSGGSYTYYPDSVKGRFPISRDNAKNTLYQQMSSLNSEDTAMYYCARLYGNYPYFAMDYWGQGTSVTVSS
VL: DIVMTQSQKFMSTSVGDRVSITCKASQNVGTAVAWYQQKPGQSPKLLIFSASNRYTGVPDRFTGSGSGTDFTLTISNMQSEDLADYFCQQYSSYPYTFGGGTKLEIK
notes: as for B1
B15: the binding result in experiment [2] and in experiment [1] was “binds” each time.

B16: CNE-6E5-C1 (antibody, V domains shown)
VH: QVTLKESGPGILQSSQILSLTCSFSGFSLITSGMGVSWIRKTSGKGLEWLAHIYWDDEKRYNPSLKSRLTISKGTSRNQVFLRITSVDTTDTATYFCVRREDFGDGFDYWGQGTTLTVSP
VL: DVLMTQAPLSLPVSLGDQASISCRSSQTIVHSNGVTYLEWYLQKPGQSPKLLIYKVSNRFSGVPDRFSGSGSGTYFTLKISRVEAEDLGVYYCFQGSHVPPTFGGGTKLEIK
notes: as for B1
For B16, the binding result in experiment [2] and in experiment [1] was “binds” each time.
